Patent publication US20250163129A1 (IMMUNOS THERAPEUTICS, published 2025)

Biological target: T1, HLA-B57(A46E/V97R).β2m IgG4 Fc fusion protein dimer associated with β2m (human; homo sapiens)
T1 construct: also called iosH2; losH2
Test: ELISA, biotinylated LILRB2 on streptavidin plate
Source text: The inventors went on to dissect the immunological properties most relevant to tumor immunity associated with HLA-B57^{(A46E/V97R)} formats, all lacking association with a peptide epitope associated with the peptide-binding groove of the HLA class I domain of the fusion protein. The affinity of interaction of LILRB2 with wildtype HLA-B57 fusion protein (dimers) lacking β2m, HLA-B57^{(A46E/V97R)} fusion protein (dimers) lacking β2m, and HLA-B57^{(A46E/V97R)} fusion protein dimers still bound to β2m was measured using the enzyme-linked immunosorbent assay (ELISA) method. Flat bottom Pierce™ Streptavidin coated high binding capacity 96 well plates (Pierce #15500) were coated with 50 μl of c-terminally biotinylated antigen molecules (LILRB2, BPS Bioscience #100335) immobilized at a final concentration of 5 μg/ml in PBS buffer. PBS and IgG isotype were used as negative controls. A serial dilution of HLA-B57, or HLA-B57^{(A46E/V97R)} lacking β2m, and HLA-B57^{(A46E/V97R)}.β2m (eight concentration points: 10, 2.5, 1, 0.25, 0.1, 0.025, 0.01, 0.0025 μg/ml) was applied (50 μl) in duplicates. An APC conjugated goat anti-human IgG antibody (Jackson Immuno Research #109-135-098) with 1:100 dilution in TBS (50 μl) was used for detection. Finally, 50 μl TBS in each well was added and a fluorescence scan was performed with APC excitation and emission wavelengths of 650 nm & 660 nm, respectively. […]

binding result: binds
B1: LILRB2, c-terminally biotinylated (BPS Bioscience #100335) (receptor, UniProt Q8N423 22-458, looked up)
chain: QTGTIPKPTLWAEPDSVITQGSPVTLSCQGSLEAQEYRLYREKKSASWITRIRPELVKNGQFHIPSITWEHTGRYGCQYYSRARWSELSDPLVLVMTGAYPKPTLSAQPSPVVTSGGRVTLQCESQVAFGGFILCKEGEDEHPQCLNSQPHARGSSRAIFSVGPVSPNRRWSHRCYGYDLNSPYVWSSPSDLLELLVPGVSKKPSLSVQPGPVMAPGESLTLQCVSDVGYDRFVLYKEGERDLRQLPGRQPQAGLSQANFTLGPVSRSYGGQYRCYGAHNLSSECSAPSDPLDILITGQIRGTPFISVQPGPTVASGENVTLLCQSWRQFHTFLLTKAGAADAPLRLRSIHEYPKYQAEFPMSPVTSAHAGTYRCYGSLNSDPYLLSHPSEPLELVVSGPSMGSSPPPTGPISTPGPEDQPLTPTGSDPQSGLGRHL
modifications: C-terminal biotin
notes: Bought reagent immobilised on streptavidin plates
